# Source: patent US20250270319A1 (Alector, published 2025)
# Read-outs that look alike come from different tables or passages of the source.
# Tests used:
# [1] = biological target: T1, human CD33 on primary human dendritic cells (human, UniProt P20138 18-364); assay: cell-based or functional assay
# [2] = biological target: T2, recombinant human CD33 protein (Sino Biologicals) (human, UniProt P20138 18-259); assay: BLI (ForteBio), antibody on anti-human Fc sensor, CD33 10 nM
# T2 construct: Bought protein; also called recombinant CD33
# T2 sequence (P20138 18-259 limits assumed): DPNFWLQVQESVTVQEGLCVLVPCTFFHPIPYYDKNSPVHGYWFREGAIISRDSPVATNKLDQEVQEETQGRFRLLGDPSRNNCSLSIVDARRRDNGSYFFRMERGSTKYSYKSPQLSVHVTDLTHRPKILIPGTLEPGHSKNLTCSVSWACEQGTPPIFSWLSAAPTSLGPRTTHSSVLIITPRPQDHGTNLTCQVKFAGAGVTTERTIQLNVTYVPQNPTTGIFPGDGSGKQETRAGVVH
# Procedure: Affinity parameters of the antibody variants for human CD33 were measured by BioLayer Interferometry in a ForteBio assay according to standard techniques (Estep et al. (2013) MAbs 5(2): 270-8) and were compared to those of the parental antibody (antibody 6C7H8) and the parental humanized antibody (antibody 6C71H5). Briefly, the antibodies were captured on anti-human Fc Biosensors (Pall ForteBio). Recombinant human CD33 (10 nM, Sino Biologicals) was then bound to the captured anti-CD33 surface (200 s association time, 1200 s dissociation time). Local fitting was used to extract association and dissociation rate constants (kₐ and kd, respectively) for each antibody. Apparent affinity constants (KD) were calculated from the ratio kd/kₐ.
# [3] = biological target: T2, recombinant human CD33 protein (Sino …); assay: ELISA, plate coated with recombinant CD33
# [4] = biological target: T1, human CD33 on primary human dendritic …; assay: cell-based or functional assay; remark: listed apart in the source
# [5] = biological target: T3, recombinant cynomolgus CD33 protein (NovoProtein) (cynomolgus); assay: ELISA, plate coated with recombinant CD33
# T3 construct: Bought protein; also called cyno CD33
# T3 sequence (chain, as listed by the source limits assumed): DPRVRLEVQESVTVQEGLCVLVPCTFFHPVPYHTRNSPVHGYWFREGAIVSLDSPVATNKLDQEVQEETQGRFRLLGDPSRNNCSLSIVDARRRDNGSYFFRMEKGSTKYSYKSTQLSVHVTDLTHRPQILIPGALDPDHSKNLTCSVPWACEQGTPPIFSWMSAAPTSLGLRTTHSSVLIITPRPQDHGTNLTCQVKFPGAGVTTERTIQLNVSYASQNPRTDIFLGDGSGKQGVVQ
# T1 sequence (P20138 18-364): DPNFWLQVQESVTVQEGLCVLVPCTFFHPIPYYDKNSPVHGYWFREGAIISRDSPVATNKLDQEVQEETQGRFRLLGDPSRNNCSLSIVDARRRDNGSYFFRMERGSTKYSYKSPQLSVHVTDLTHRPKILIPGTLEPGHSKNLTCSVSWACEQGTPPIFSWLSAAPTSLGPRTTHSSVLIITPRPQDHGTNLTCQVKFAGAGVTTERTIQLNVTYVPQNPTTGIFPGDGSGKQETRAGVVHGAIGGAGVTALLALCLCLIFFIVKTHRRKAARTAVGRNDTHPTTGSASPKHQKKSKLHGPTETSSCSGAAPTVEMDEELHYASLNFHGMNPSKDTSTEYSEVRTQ
Binder,EC50 [3] [pM],Fold increase in potency compared to 6C7H5 [4] [fold],"Receptor downregulation, (EC50) (pM) [4] [pM]",Relative maximal binding (cyno/human) [5],other results
"anti-CD33 antibody 6C7H21 (antibody, V domains shown, VH/VL only) VH: EVQLVESGGGLVQPGGSLRLSCAGSGFTFSNYQMNWVRQAPGKGLEWVAEIRLKSNNYVTNYAASVKGRFTISRDDSKNSVYLQMNSLKTEDTGVYYCTRAGYYVPFAYWGQGTLVTVSS VL: QLVLTQSPSASASLGASVKLTCTLSSQHSTYTIEWYQQQPEKGPRYLMELKKEGSHSTGDGIPDRFSGSSSGAERYLTISSLQSEDEADYYCGVGDTIKEQFVYVFGGGTKLTVL",160,,,,"Fold increase in potency compared to 6C7H5 [1]: 1.2 fold; Maximal reduction in CD33 (% remaining) [1]: 28.3 % remaining; Receptor downregulation, (EC50) (pM) [1]: 34.7 pM; Kd [2]: 528 pM; koff [2]: 0.000263 s⁻¹; kon [2]: 498000 M⁻¹ s⁻¹"
"anti-CD33 antibody 6C7H31 (antibody, V domains shown, VH/VL only) VH: EVQLVESGGGLVQPGGSLRLSCAASGSTFSEYDMLWVRQAPGKGLEWVGEIRLKSNNYVTNYAASVKGRFTISRDDSKNSVYLQMNSLKTEDTGVYYCTRAGYYVPFAYWGQGTLVTVSS VL: QPVLTQSPSASASLGASVKLTCTLSSQHSTYTIEWYQQQPEKGPRYLMELKKEGSHSTGDGIPDRFSGSSSGAERYLTISSLQSEDEADYYCGVGVTIKEQFVYVFGGGTKLTVL",210,0.6,67.7,,
"anti-CD33 antibody 6C7H35 (antibody, V domains shown, VH/VL only) VH: EVQLVESGGGLVQPGGSLRLSCAASGFTFSEYAMLWVRQAPGKGLEWVGEIRLKSNNYVTNYAASVKGRFTISRDDSKNSVYLQMNSLKTEDTGVYYCTRAGYYVPFTYWGQGTLVTVSS VL: QPVLTQSPSASASLGASVKLTCTLSSQHSTYTIEWYQQQPEKGPRYLMELKKEGSHSTGDGIPDRFSGSSSGAERYLTISSLQSEDEADYYCGVGVTIKEQFVYVFGGGTKLTVL",210,0.8,51,,
"anti-CD33 antibody 6C7H37 (antibody, V domains shown, VH/VL only) VH: EVQLVESGGGLVQPGGSLRLSCAASGFTFSEYAMLWVRQAPGKGLEWVGEIRLKSNNYVTNYAASVKGRFTISRDDSKNSVYLQMNSLKTEDTGVYYCTRAGYYVPFTYWGQGTLVTVSS VL: QLMLTQSPSASASLGASVKLTCTLSSQHSTYTIEWYQQQPGKGPRYLMELKKEGSHSTGDGIPDRFSGSSSGAERYLTISSLQSEDEADYYCGVGHTIKEQFVYVFGGGTKLTVL",260,0.7,59.3,0.45,EC50 [5]: 5620 pM; Relative potency (human/cyno) [5]: 0.05
"anti-CD33 antibody 6C7H33 (antibody, V domains shown, VH/VL only) VH: EVQLVESGGGLVQPGGSLRLSCAASGSTFSEYDMLWVRQAPGKGLEWVGEIRLKSNNYVTNYAASVKGRFTISRDDSKNSVYLQMNSLKTEDTGVYYCTRAGYYVPFAYWGQGTLVTVSS VL: QLMLTQSPSASASLGASVKLTCTLSSQHSTYTIEWYQQQPGKGPRYLMELKKEGSHSTGDGIPDRFSGSSSGAERYLTISSLQSEDEADYYCGVGHTIKEQFVYVFGGGTKLTVL",170,0.8,50,,
"anti-CD33 antibody 6C7H34 (antibody, V domains shown, VH/VL only) VH: EVQLVESGGGLVQPGGSLRLSCAASGSTFSEYDMLWVRQAPGKGLEWVGEIRLKSNNYVTNYAASVKGRFTISRDDSKNSVYLQMNSLKTEDTGVYYCTRAGYYVPFAYWGQGTLVTVSS VL: QPMLTQSPSASASLGASVKLTCTLSSQHSTYTIEWYQQQPGKGPRYLMELKKEGSHSTGDGIPDRFSGSSSGAERYLTISSLQSEDEADYYCGVGLTIKEQFVYVFGGGTKLTVL",170,0.7,60.3,,
"anti-CD33 antibody 6C7H36 (antibody, V domains shown, VH/VL only) VH: EVQLVESGGGLVQPGGSLRLSCAASGFTFSEYAMLWVRQAPGKGLEWVGEIRLKSNNYVTNYAASVKGRFTISRDDSKNSVYLQMNSLKTEDTGVYYCTRAGYYVPFTYWGQGTLVTVSS VL: QLMLTQSPSASASLGASVKLTCTLSSQHSTYTIEWYQQQPGKGPRYLMELKKEGSHSTGDGIPDRFSGSSSGAERYLTISSLQSEDEADYYCGVGHTIKEQFVYEFGGGTKLTVL",130,0.9,49.1,0.34,EC50 [5]: 4000 pM; Relative potency (human/cyno) [5]: 0.03
"anti-CD33 antibody 6C7H32 (antibody, V domains shown, VH/VL only) VH: EVQLVESGGGLVQPGGSLRLSCAASGSTFSEYDMLWVRQAPGKGLEWVGEIRLKSNNYVTNYAASVKGRFTISRDDSKNSVYLQMNSLKTEDTGVYYCTRAGYYVPFAYWGQGTLVTVSS VL: QLMLTQSPSASASLGASVKLTCTLSSQHSTYTIEWYQQQPGKGPRYLMELKKEGSHSTGDGIPDRFSGSSSGAERYLTISSLQSEDEADYYCGVGHTIKEQFVYEFGGGTKLTVL",200,0.9,47.2,,

# Now from value to binder, other results behind:
EC50 [3] [pM],Fold increase in potency compared to 6C7H5 [4] [fold],"Receptor downregulation, (EC50) (pM) [4] [pM]",Relative maximal binding (cyno/human) [5],Binder,other results
200,1.1,39.4,0.08,"anti-CD33 antibody 6C7H42 (antibody, V domains shown, VH/VL only) VH: EVQLVESGGGLVQPGGSLRLSCAASGFTFSEYDMLWVRQAPGKGLEWVGEIRLKSNNYVTNYAASVKGRFTISRDDTKNSVYLQMNSLKTEDTGVYYCTRAGYYVPFAYWGQGTLVTVSS VL: QPMLTQSPSASASLGASVKLTCTLSSQHSTYTIEWYQQQPGKGPRYLMELKKEGSHSTGDGIPDRFSGSSSGAERYLTISSLQSEDEADYYCGVGLTIKEQFVYVFGGGTKLTVL",
180,0.9,45.7,0.09,"anti-CD33 antibody 6C7H44 (antibody, V domains shown, VH/VL only) VH: EVQLVESGGGLVQPGGSLRLSCAASGFTFSEYDMLWVRQAPGKGLEWVGEIRLKSNNYVTNYAASVKGRFTISRDDSKNSVYLQMNSLKTEDTGVYYCTRAGYYVPFAYWGQGTLVTVSS VL: QPMLTQSPSASASLGASVKLTCTLSSQHSTYTIEWYQQQPGKGPRYLMELKKEGSHSTGDGIPDRFSGSSSGAERYLTISSLQSEDEADYYCGVGLTIKEQFVYVFGGGTKLTVL",
230,1.2,34.2,,"anti-CD33 antibody 6C7H41 (antibody, V domains shown, VH/VL only) VH: EVQLVESGGGLVQPGGSLRLSCAASGFTFSEYDMLWVRQAPGKGLEWVGEIRLKSNNYVTNYAASVKGRFTISRDDTKNSVYLQMNSLKTEDTGVYYCTRAGYYVPFAYWGQGTLVTVSS VL: QLMLTQSPSASASLGASVKLTCTLSSQHSTYTIEWYQQQPGKGPRYLMELKKEGSHSTGDGIPDRFSGSSSGAERYLTISSLQSEDEADYYCGVGHTIKEQFVYVFGGGTKLTVL",
230,1.1,38.7,,"anti-CD33 antibody 6C7H39 (antibody, V domains shown, VH/VL only) VH: EVQLVESGGGLVQPGGSLRLSCAASGFTFSEYDMLWVRQAPGKGLEWVGEIRLKSNNYVTNYAASVKGRFTISRDDTKNSVYLQMNSLKTEDTGVYYCTRAGYYVPFAYWGQGTLVTVSS VL: QPVLTQSPSASASLGASVKLTCTLSSQHSTYTIEWYQQQPEKGPRYLMELKKEGSHSTGDGIPDRFSGSSSGAERYLTISSLQSEDEADYYCGVGVTIKEQFVYVFGGGTKLTVL",
190,1.1,37.2,,"anti-CD33 antibody 6C7H40 (antibody, V domains shown, VH/VL only) VH: EVQLVESGGGLVQPGGSLRLSCAASGFTFSEYDMLWVRQAPGKGLEWVGEIRLKSNNYVTNYAASVKGRFTISRDDTKNSVYLQMNSLKTEDTGVYYCTRAGYYVPFAYWGQGTLVTVSS VL: QLMLTQSPSASASLGASVKLTCTLSSQHSTYTIEWYQQQPGKGPRYLMELKKEGSHSTGDGIPDRFSGSSSGAERYLTISSLQSEDEADYYCGVGHTIKEQFVYEFGGGTKLTVL",
210,1.6,27,0.36,"anti-CD33 antibody 6C7H38 (antibody, V domains shown, VH/VL only) VH: EVQLVESGGGLVQPGGSLRLSCAASGFTFSEYAMLWVRQAPGKGLEWVGEIRLKSNNYVTNYAASVKGRFTISRDDSKNSVYLQMNSLKTEDTGVYYCTRAGYYVPFTYWGQGTLVTVSS VL: QPMLTQSPSASASLGASVKLTCTLSSQHSTYTIEWYQQQPGKGPRYLMELKKEGSHSTGDGIPDRFSGSSSGAERYLTISSLQSEDEADYYCGVGLTIKEQFVYVFGGGTKLTVL",EC50 [5]: 4870 pM; Relative potency (human/cyno) [5]: 0.04
300,0.6,69.7,,"anti-CD33 antibody 6C7H49 (antibody, V domains shown, VH/VL only) VH: EVQLVESGGGLVQPGGSLRLSCAASGFTFSEYDMLWVRQAPGKGLEWVGEIRLKSNNYVTNYAASVKGRFTISRDDSKNSVYLQMNSLKTEDTGVYYCTRAGYYVPFAYWGQGTLVTVSS VL: QPVLTQSPSASASLGASVKLTCTLSSQHSTYTIEWYQQQPEKGPRYLMELKKEGSHSTGDGIPDRFSGSSSGAERYLTISSLQSEDEADYYCGVGVTIKEQFVYVFGGGTKLTVL",
170,0.9,49.8,0.11,"anti-CD33 antibody 6C7H43 (antibody, V domains shown, VH/VL only) VH: EVQLVESGGGLVQPGGSLRLSCAASGFTFSEYDMLWVRQAPGKGLEWVGEIRLKSNNYVTNYAASVKGRFTISRDDSKNSVYLQMNSLKTEDTGVYYCTRAGYYVPFAYWGQGTLVTVSS VL: QLMLTQSPSASASLGASVKLTCTLSSQHSTYTIEWYQQQPGKGPRYLMELKKEGSHSTGDGIPDRFSGSSSGAERYLTISSLQSEDEADYYCGVGHTIKEQFVYEFGGGTKLTVL",
